Legend:
[1] = target: T1, biotinylated recombinant human BCMA (Acro Biosystems Cat: #BC7-H82F0) (human, UniProt Q02223 1-54, biotinylated); test: flow cytometry; CTX120 cells stained with biotinylated BCMA and fluorescent streptavidin
T1 construct: Bought reagent; Detected with fluorescent streptavidin
T1 sequence (looked up): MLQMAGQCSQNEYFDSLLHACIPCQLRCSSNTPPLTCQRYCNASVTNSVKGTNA
Procedure: The resultant genetically engineered T cells were characterized for incorporation of the desired gene edits: loss of TCR, loss of MHC I expression, and expression of an anti-BCMA CAR. Approximately one week after gene-editing, allogeneic T cells were assessed for surface expression of TCR, β2M, and anti-BCMA CAR using flow cytometry. The allogeneic cells were stained with biotinylated recombinant human BCMA (Acro Biosystems Cat: #BC7-H82F0) and tagged with fluorescent streptavidin and with fluorescent antibodies targeting cell surface markers. The percentage of cells that were TCR⁻, β2M⁻, and anti-BCMA CAR⁺ was determined. Nine lots of CTX120 cells were prepared from eight healthy donors.

mouse BCMA = target: T2, mouse BCMA (mouse, UniProt O88472 1-49, limits assumed); test: not described (statement within Example 5)
T2 construct: also called murine BCMA
T2 chain (looked up): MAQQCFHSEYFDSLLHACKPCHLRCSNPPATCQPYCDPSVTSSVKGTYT

binding result [1]: binds
binding result (mouse BCMA): no binding
B1: anti-BCMA CAR (CTX-166b) expressed on CTX120 cells (other)
chain: QVQLVQSGAELKKPGASVKVSCKASGNTLTNYVIHWVRQAPGQRLEWMGYILPYNDLTKYSQKFQGRVTITRDKSASTAYMELSSLRSEDTAVYYCTRWDWDGFFDPWGQGTTVTVSSGGGGSGGGGSGGGGSEIVMTQSPATLSVSPGERASISCRASQSLVHSNGNTHLHWYQQRPGQAPRLLIYSVSNRFSEVPARFSGSGSGTDFTLTISSVESEDFAVYYCSQTSHIPYTFGGGTKLEIKSAAAFVPVFLPAKPTTTPAPRPPTPAPTIASQPLSLRPEACRPAAGGAVHTRGLDFACDIYIWAPLAGTCGVLLLSLVITLYCNHRNRKRGRKKLLYIFKQPFMRPVQTTQEEDGCSCRFPEEEEGGCELRVKFSRSADAPAYQQGQNQLYNELNLGRREEYDVLDKRRGRDPEMGGKPRRKNPQEGLYNELQKDKMAEAYSEIGMKGERRRGKGHDGLYQGLSTATKDTYDALHMQALPPR
notes: TRAC and B2M disrupted; also called CTX120 anti-BCMA CAR

— patent US20230220059A1 (CRISPR THERAPEUTICS, published 2023)
